Target: T1, vesicular stomatitis virus (VSV) phosphoprotein (P), wild type (vesicular stomatitis virus (VSV)), P03520
T1 chain: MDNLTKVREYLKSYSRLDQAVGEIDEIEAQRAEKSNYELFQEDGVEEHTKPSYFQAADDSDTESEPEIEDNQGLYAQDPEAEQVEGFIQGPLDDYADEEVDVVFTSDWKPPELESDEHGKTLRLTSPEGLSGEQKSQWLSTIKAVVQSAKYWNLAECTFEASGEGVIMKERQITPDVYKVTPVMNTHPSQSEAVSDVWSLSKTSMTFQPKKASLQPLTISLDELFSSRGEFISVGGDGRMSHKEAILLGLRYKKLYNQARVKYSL
Test: SEC-MALS
Conditions: remark: other sources report otherwise

B1: vesicular stomatitis virus (VSV) phosphoprotein (P), wild type, P03520 1-265 (natural protein)
chain: T1 chain
stoichiometry N: 2

From article PMC7307139
